Broadly, the Kd is the equilibrium constant for the complex coming apart. Read a high Kd as a looser complex. What is called EC50 (read off the curve) is the concentration at which the effect is half-maximal. A lower EC50 (read off the curve) goes with an effect from little substance. Broadly, the kon is the second-order rate constant of association. Lower therefore signals slower complex formation.

Experiment [1] has as its target human OX40, full-length, on cells (human) (UniProt P43489). As to the kind of experiment: FACS, transfected 293F cells, antibody 2 ug/mL.
Experiment [2] concerns the target mouse OX40 (mPro1) on transfected 293F cells (mouse) (UniProt P47741). As to the kind of experiment: FACS, transfected 293F cells, antibody 2 ug/mL. For orientation: Flow cytometry measures light scatter and fluorescence of single cells or particles in a stream.
The target in experiment [3] is human CD40 (hPro40) on transfected 293F cells (human) (UniProt P25942). Put plainly: FACS, transfected 293F cells, antibody 2 ug/mL.
human CD40 (hPro40) on transfected 293F cells (human), sequence (P25942 21-277): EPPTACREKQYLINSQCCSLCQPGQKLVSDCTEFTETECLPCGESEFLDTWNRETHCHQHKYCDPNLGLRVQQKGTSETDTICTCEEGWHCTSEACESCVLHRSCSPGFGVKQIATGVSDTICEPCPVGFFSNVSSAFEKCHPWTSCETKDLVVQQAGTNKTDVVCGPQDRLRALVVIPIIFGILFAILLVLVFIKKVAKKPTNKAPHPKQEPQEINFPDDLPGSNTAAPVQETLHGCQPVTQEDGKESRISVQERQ
The target of experiment [4] is human OX40, full-length, on cells (human) (UniProt P43489). Put plainly: flow cytometry, CHO-K1 cells expressing human OX40, MESF beads.
human OX40, full-length, on cells (human), sequence (P43489 29-277): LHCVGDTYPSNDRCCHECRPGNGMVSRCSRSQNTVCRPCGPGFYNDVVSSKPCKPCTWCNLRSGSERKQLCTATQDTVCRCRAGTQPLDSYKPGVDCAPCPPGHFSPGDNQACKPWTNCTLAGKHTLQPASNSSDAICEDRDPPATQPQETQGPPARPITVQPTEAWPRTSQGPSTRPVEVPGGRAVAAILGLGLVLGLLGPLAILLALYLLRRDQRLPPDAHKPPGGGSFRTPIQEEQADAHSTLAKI
For experiment [5] the target is unchanged. As to the kind of experiment: flow cytometry on human OX40 transfected CHO-K1 cells.
Experiment [6] addresses human OX40 extracellular domain (ECD) protein (human) (UniProt P43489). Put plainly: SPR, Biacore T200, antibody captured, OX40 as analyte. On the technique in general: In SPR one partner is held on a chip, and binding of the other changes the refractive index at the surface.
Experiment [7] has as its target human OX40, full-length, on cells (human) (UniProt P43489). Put plainly: flow cytometry on activated human CD4+ T cells.
Experiment [8] has as its target human OX40 extracellular domain (ECD) protein (human) (UniProt P43489). Put plainly: competition ELISA: human OX40 ECD coated, antibody titrated in a mix with a constant concentration of OX40L, bound OX40L detected at OD450.
The target of experiment [9] is human OX40, full-length, on cells (human) (UniProt P43489). Put plainly: flow cytometry, MFI against antibody concentration; neither the legend nor paragraph 266 names the cells, target taken as cell-surface human OX40 because the antibodies are anti-OX40.
In experiment [10] the target is human OX40 extracellular domain (ECD) protein (human) (UniProt P43489). Put plainly: epitope binning by competition against labelled BMK10 on human OX40 (self-competition control); the antibody named in the legend box is titrated; the text describes an ELISA, the axis on the sheet reads MFI. A general note: In an ELISA, binding on a coated surface is turned into a signal by an enzyme label.
human OX40 extracellular domain (ECD) protein (human), sequence (P43489 29-214): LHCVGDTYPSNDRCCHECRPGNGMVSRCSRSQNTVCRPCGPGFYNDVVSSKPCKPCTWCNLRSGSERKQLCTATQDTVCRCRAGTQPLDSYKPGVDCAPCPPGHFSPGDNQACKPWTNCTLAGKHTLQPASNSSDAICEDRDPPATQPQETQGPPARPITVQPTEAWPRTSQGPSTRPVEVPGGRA

Experiment [11] deals with xPro1.FL-x7: CRDmox40_3-4 (human; mouse) (UniProt P43489). As to the kind of experiment: FACS, transfected 293F cells, antibody 1 ug/mL.
xPro1.FL-x7: CRDmox40_3-4 (human; mouse), sequence (P43489 other isoform, or with tags, fused parts or gaps, form in doubt): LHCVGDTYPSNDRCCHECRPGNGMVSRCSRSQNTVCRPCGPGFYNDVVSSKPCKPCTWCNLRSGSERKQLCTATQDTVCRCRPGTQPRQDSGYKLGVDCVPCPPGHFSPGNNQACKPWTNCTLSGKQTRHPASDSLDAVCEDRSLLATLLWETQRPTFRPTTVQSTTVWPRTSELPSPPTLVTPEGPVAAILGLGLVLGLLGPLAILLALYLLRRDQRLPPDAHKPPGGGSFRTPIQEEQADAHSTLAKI
For experiment [12], the target named is xPro1.FL-x3: CRDmox40_3 (human; mouse) (UniProt P43489). Put plainly: FACS, transfected 293F cells, antibody 1 ug/mL.
xPro1.FL-x3: CRDmox40_3 (human; mouse), sequence (P43489 other isoform, or with tags, fused parts or gaps, form in doubt): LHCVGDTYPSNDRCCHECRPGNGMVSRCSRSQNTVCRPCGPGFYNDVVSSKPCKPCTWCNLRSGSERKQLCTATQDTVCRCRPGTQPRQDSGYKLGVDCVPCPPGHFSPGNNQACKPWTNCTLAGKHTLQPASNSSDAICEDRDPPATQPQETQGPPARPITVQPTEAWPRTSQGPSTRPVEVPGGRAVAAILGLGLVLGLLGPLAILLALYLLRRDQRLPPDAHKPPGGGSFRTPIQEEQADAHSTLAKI
Experiment [13] has as its target xPro1.FL-x5: CRDmox40_1-2 (human; mouse) (UniProt P47741). Put plainly: FACS, transfected 293F cells, antibody 1 ug/mL.
Experiment [14] addresses xPro1.FL-x8: CRDmox40_1-3 (human; mouse) (UniProt P47741). As to the kind of experiment: FACS, transfected 293F cells, antibody 1 ug/mL.
Experiment [15] has as its target xPro1.FL-x9: CRDmox40_2-4 (human; mouse) (UniProt P43489). Put plainly: FACS, transfected 293F cells, antibody 1 ug/mL.
In experiment [16] the target is xPro1.FL.x2: CRDmox40_2 (human; mouse) (UniProt P43489). As to the kind of experiment: FACS, transfected 293F cells, antibody 1 ug/mL.
xPro1.FL.x2: CRDmox40_2 (human; mouse), sequence (P43489 other isoform, or with tags, fused parts or gaps, form in doubt): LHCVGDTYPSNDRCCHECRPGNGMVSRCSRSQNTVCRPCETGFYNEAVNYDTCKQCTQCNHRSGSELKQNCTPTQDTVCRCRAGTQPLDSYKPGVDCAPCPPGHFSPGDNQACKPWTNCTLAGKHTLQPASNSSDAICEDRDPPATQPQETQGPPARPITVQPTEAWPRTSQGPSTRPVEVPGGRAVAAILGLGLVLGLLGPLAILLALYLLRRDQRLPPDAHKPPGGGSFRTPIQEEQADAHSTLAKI
The target of experiment [17] is xPro1.FL-x4: CRDmox40_4 (human; mouse) (UniProt P43489). Put plainly: FACS, transfected 293F cells, antibody 1 ug/mL.
xPro1.FL-x4: CRDmox40_4 (human; mouse), sequence (P43489 other isoform, or with tags, fused parts or gaps, form in doubt): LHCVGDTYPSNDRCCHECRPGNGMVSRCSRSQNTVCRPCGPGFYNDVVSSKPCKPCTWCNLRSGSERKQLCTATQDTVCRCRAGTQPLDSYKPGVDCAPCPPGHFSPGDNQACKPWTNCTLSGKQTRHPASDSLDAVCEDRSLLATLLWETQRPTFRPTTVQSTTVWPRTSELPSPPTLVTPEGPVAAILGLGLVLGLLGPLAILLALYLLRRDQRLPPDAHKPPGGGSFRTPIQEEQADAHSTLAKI
For experiment [18], the target named is xPro1.FL-x11: CRDmox40_1,3,4 (human; mouse) (UniProt P47741). As to the kind of experiment: FACS, transfected 293F cells, antibody 1 ug/mL.
Experiment [19] addresses xPro1.FL-x6: CRDmox40_2-3 (human; mouse) (UniProt P43489). Put plainly: FACS, transfected 293F cells, antibody 1 ug/mL.
The target of experiment [20] is xPro1.FL-x10: CRDmox40_1,2,4 (human; mouse) (UniProt P47741). Put plainly: FACS, transfected 293F cells, antibody 1 ug/mL.
Experiment [21] deals with xPro1.FL-x1: CRDmox40_1 (human; mouse) (UniProt P47741). As to the kind of experiment: FACS, transfected 293F cells, antibody 1 ug/mL.

xPro1.FL-x6: CRDmox40_2-3 (human; mouse), sequence (P43489 other isoform, or with tags, fused parts or gaps, form in doubt): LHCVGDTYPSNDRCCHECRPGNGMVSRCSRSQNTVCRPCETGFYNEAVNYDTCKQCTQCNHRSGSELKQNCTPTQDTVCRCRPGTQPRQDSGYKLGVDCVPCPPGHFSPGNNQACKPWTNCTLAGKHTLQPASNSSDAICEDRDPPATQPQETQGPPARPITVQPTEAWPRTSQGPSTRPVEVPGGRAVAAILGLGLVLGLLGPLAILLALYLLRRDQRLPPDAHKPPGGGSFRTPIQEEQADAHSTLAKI
xPro1.FL-x9: CRDmox40_2-4 (human; mouse), sequence (P43489 other isoform, or with tags, fused parts or gaps, form in doubt): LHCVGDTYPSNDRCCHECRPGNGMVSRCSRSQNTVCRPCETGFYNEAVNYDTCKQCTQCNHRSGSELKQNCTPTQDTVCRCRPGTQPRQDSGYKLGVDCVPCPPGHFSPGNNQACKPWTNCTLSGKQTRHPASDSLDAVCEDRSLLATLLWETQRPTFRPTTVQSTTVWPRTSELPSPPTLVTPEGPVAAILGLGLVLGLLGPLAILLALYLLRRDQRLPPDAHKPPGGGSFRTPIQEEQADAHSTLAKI
mouse OX40 (mPro1) on transfected 293F cells (mouse), sequence (P47741 20-272): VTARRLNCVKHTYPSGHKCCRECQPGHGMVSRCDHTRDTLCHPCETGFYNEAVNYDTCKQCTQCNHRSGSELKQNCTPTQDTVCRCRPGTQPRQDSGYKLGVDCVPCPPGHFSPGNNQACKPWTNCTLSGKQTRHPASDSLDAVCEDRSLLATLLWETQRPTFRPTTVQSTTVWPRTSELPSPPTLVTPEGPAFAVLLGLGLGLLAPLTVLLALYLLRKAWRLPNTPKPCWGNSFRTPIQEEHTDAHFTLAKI

B1: BMK10 (antibody, from another filing, V domains shown)
VH: EVQLVQSGAEVKKPGASVKVSCKASGYTFTDSYMSWVRQAPGQGLEWIGDMYPDNGDSSYNQKFRERVTITRDTSTSTAYLELSSLRSEDTAVYYCVLAPRWYFSVWGQGTLVTVSS
VL: DIQMTQSPSSLSASVGDRVTITCRASQDISNYLNWYQQKPGKAPKLLIYYTSRLRSGVPSRFSGSGSGTDFTLTISSLQPEDFATYYCQQGHTLPPTFGQGTKVEIK
Turning to B1, the figures for the MFI in [1], in [2] and in [3] were 27600, 5000 and 28.8, respectively. In addition, the PE + % was found to be 98.3% in [1], 91.6% in experiment [2] and 0.068% in experiment [3]. This molecule also showed a Kd in experiment [4] of 0.23 nM. The 50% effective concentration (EC50 (read off the curve)) in experiment [5] was 0.6 nM; in [7] it was 0.7 nM; in experiment [9], 0.8 nM. The molecule also displayed a kon in [6] of 442000 M⁻¹ s⁻¹. Also, the figures for the IC50 (read off the curve) in experiment [8] and in experiment [10] were 3 nM and 6 nM, respectively.

B2: 1.214.23-u1-IgG1K (antibody, V domains shown)
VH: QVQLQESGPGLVKPSGTLSLTCVVSGGSISNRNWWSWVRQPPGKGLEWIGEIFHSGNTNYNPSLKSRVTISVDKSKNQFSLKVNSVTAADTAVYYCAKSFAVALDSWGQGTLVTVSS
VL: DIQLTQSPSFLSASVGDRVTITCRASQDINSYLAWCQQKPGKAPKLLIYAASSLQSGVPSRFSGTGSGTEFTLTISSLQPEDFATYYCQQLFSYPITFGQGTRLEIK
For the molecule B2, the MFI in [11] was 6540; in experiment [12], 2250; in experiment [13], 21700; in experiment [14], 42.6; in experiment [15] it was 80.1; in [16] it was 23300. For the same molecule, the MFI in experiment [17] is 23200; in experiment [18], 6260; in experiment [19], 113; in experiment [20], 19600; in experiment [21], 5420. The PE + % in experiment [11] is 81.5%; in [12], 70%; in [13], 96.5%; in [14], 0.743%; in experiment [15], 0.244%; in experiment [16] it was 92.8%. Moreover, the PE + % amounted to 97.7% in experiment [17]; 70.8% in experiment [18]; 2.31% in [19]; 94.4% in experiment [20]; 82.9% in [21].

B3: 1.134.9-u1-IgG1L (antibody, V domains shown)
VH: QVQLQESGPGLVKPSGTLSLTCAVSGGSISSYNWWSWVRQPPGKGLEWIGEIYHGGNTNYNPSLKSRVTMSVDNSKNQFSLKLSSVTAADTAVYYCARAPGDWGGSPYFDFWGQGTLVTVSS
VL: SSELTQDPAVSVALGQTVRITCQGDNLRTYYASWYQQKPGQAPILLIYGRNKRPSGIPDRFSGSSSGNTASLTITGAQAEDEAAYYCNSRDSSGNPVVFGGGTKLTVL
For B3, the MFI in [11] was 9160; in experiment [12] it was 3800; in experiment [13], 61; in [14], 43.2; in experiment [15], 44.1; in experiment [16] it was 49.5. The MFI is 24100 in experiment [17]; 9400 in experiment [18]; 211 in experiment [19]; 42.7 in [20]; 6440 in [21]. The PE + % was determined as 80.3% in experiment [11]; 66.1% in experiment [12]; 1.73% in experiment [13]; 0.678% in experiment [14]; 0.668% in [15]; 0.904% in experiment [16]. The PE + % in experiment [17] was determined as 96.6%; in [18], 74%; in experiment [19] it was 6.75%; in [20], 0.624%; in experiment [21], 75.3%.

For the origin of these results see patent US20210171647A1.
